{"source": "paper PMC13389190", "molecular_target": "SpAB-T7 RNAP"}
{"substance": "Bamlanivimab (antibody)", "values": [{"measurement": "MDC (minimal detectable concentration of Bamlanivimab in the ZF-RBD / SpAB-T7 RNAP sensor, 2.5% human serum)", "result": 12.7, "unit": "nM"}]}
